For test [1], the target named is T1, mouse IL-4Rα on cells (HT-2 cells, purified mouse B cells) (mouse, UniProt P16382 26-810).
T1 sequence (looked up): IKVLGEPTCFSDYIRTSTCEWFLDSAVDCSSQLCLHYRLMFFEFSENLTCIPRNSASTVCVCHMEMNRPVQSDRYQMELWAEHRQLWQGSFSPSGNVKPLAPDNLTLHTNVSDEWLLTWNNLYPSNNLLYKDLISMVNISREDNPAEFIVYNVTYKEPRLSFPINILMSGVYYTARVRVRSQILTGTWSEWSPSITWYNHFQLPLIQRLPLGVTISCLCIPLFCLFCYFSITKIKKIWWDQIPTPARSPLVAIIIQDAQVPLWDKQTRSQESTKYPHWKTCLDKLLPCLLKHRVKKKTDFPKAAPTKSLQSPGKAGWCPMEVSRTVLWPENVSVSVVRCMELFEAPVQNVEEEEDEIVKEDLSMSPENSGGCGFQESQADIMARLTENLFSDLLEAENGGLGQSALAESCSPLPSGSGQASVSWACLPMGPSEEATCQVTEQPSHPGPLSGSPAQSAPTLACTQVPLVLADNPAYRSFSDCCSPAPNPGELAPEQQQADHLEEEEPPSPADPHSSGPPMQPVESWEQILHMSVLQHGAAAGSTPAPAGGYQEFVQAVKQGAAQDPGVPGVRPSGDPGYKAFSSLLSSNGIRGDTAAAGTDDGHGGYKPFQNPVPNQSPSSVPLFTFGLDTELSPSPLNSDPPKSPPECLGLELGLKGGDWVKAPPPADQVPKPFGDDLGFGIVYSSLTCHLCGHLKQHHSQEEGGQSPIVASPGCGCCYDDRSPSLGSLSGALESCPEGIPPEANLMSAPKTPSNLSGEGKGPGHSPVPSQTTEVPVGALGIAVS
Put plainly: cell-based or functional assay.

Test [2] deals with T2, mouse IL-4Rα (SPR target of Example 2) (mouse, UniProt P16382 26-233, limits assumed).
T2 construct: also called immobilized target IL-4Rα
T2 sequence (looked up): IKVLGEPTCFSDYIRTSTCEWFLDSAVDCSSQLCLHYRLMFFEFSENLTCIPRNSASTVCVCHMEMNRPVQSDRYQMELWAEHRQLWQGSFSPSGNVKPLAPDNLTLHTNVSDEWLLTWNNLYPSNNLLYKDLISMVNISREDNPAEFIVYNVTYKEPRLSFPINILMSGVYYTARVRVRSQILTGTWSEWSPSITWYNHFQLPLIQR
Put plainly: SPR, mAb (0-20 µg/mL) over immobilised target; immobilized IL-4Rα target; IL-4Rα mAb in solution.

In test [3] the target is T3, mouse IL-5 (mouse, UniProt P04401 21-133).
T3 construct: also called mIL-5; recombinant mouse IL-5 (R&D Systems)
T3 sequence (looked up): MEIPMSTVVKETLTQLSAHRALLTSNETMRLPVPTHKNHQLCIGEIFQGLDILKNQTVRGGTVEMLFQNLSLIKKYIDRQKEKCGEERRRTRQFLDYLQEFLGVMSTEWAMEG
Put plainly: SPR sandwich: IL-4Rα-Fc coated, anti-IL-4Rα Ab as 1st injection, IL-5 as 2nd injection. On the procedure: (§1) The experiment was also performed in reverse order and confirmed the bispecific nature of the molecule as depicted in FIG. 13B.

The target of test [4] is T3, mouse IL-5. Put plainly: SPR, IL-5 coated, antibody as 1st injection. How it is done:
as §1

For test [5], the target named is T4, recombinant mouse IL-4Rα-Fc (mouse, UniProt P16382 26-233).
T4 construct: Bought reagent; also called coated IL-4Rα; injected IL-4Rα; not shown: Fc part
T4 sequence (looked up): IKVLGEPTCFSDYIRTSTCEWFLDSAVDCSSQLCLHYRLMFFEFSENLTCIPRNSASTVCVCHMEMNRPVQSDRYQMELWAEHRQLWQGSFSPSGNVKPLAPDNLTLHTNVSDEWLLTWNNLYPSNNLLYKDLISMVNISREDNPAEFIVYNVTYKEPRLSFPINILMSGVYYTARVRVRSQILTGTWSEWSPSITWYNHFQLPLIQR
Put plainly: SPR sandwich: IL-5 coated, bispecific as 1st injection, IL-4Rα-Fc as 2nd injection. On the procedure:
as §1

Test [6] deals with T3, mouse IL-5. Put plainly: cell-based or functional assay.
In test [7] the target is T3, mouse IL-5. Put plainly: cell-based or functional assay. The source holds these as a separate data set.
The target of test [8] is T4, recombinant mouse IL-4Rα-Fc. Put plainly: SPR, IL-4Rα-Fc coated, antibody as 1st injection. How it is done: as §1
(Surface plasmon resonance follows binding to a sensor surface in real time, without labels.)

Test [9] addresses T3, mouse IL-5. Put plainly: SPR, mAb (0-20 µg/mL) over immobilised target; immobilized IL-5 target; IL-5 mAb in solution.

B1: m4RMP36B7 IL-4Rα monospecific antibody (mouse IgG2a) (antibody, V domains shown)
VH: EVQLVESGGGLVQPGGSLRVSCAASGFTFSSYYMAWVRQAPGKGLEWVSHIHAGGSLTQYADSVKGRFTISRDNAKSTLYLQMNSLKPEDTALYYCVRIYGDATSYDYWGQGTQVSVSS
VL: HSAVTQPPSVSGSPGKTVTISCAGTSSDIGGYNYVSWYQQFPGTAPKLLIYEVNKRASGIPDRFSGSKSGNTASLSISGLQSEDEADYYCASYRSNNNIVFGGGTHLTVL
notes: also called IL-4Rα mAb; IL-4Rα monospecific Ab
B1: the “EC50, inhibition of mouse IL-4-induced proliferation of HT-2 cells” value in [1] is 0.2 nM. For the same molecule, the dissociation constant Kd (as a rule, the constant that tells how readily two partners part at equilibrium) in test [2] was 0.08 nM. For the same molecule, the binding result with mouse IL-5 [3] is reported as “no binding”.

B2: IL-4Rα/IL-5 bispecific antibody (knob-into-hole, mouse IgG2a; 4RMP36B7 arm and 5MP95G7 arm) (bispecific antibody, V domains shown)
VH 1: EVQLVESGGGLVQPGGSLRVSCAASGFTFSSYYMAWVRQAPGKGLEWVSHIHAGGSLTQYADSVKGRFTISRDNAKSTLYLQMNSLKPEDTALYYCVRIYGDATSYDYWGQGTQVSVSS
VL 1: HSAVTQPPSVSGSPGKTVTISCAGTSSDIGGYNYVSWYQQFPGTAPKLLIYEVNKRASGIPDRFSGSKSGNTASLSISGLQSEDEADYYCASYRSNNNIVFGGGTHLTVL
VH 2: ELQVVESGGGLVQPGGSLRLSCAASGFTFSSYGMSWVRQAPGKGLEWVSTISRGGDSTSYADSVKGRFTISKDNAKNTLYLQMNSLEPEDTAVYYCANLGRLGFGRGQGTQVTVSS
VL 2: SYELTQPPSVSGSPGKTLTISCAGTSSDIGDWNYVSWFQQLPGTAPKLLISEVNKRASGIPDRFSGSKSGNTASLSISGLQSEDEADYYCTSYRSGNNWVFGGGTHLTVL
notes: Murine Fc: the 4RMP36B7 heavy chain carries T366S, L368A and Y407V in CH3, the 5MP95G7 heavy chain carries T366W; also called IL-4Rα/IL-5 bispecific Ab; bispecific Ab
As for B2, the binding result (with mouse IL-5 [4]; in test [5]) was “binds” in each case.

B3: m5MP95G7 IL-5 monospecific antibody (mouse IgG2a) (antibody, V domains shown)
VH: ELQVVESGGGLVQPGGSLRLSCAASGFTFSSYGMSWVRQAPGKGLEWVSTISRGGDSTSYADSVKGRFTISKDNAKNTLYLQMNSLEPEDTAVYYCANLGRLGFGRGQGTQVTVSS
VL: SYELTQPPSVSGSPGKTLTISCAGTSSDIGDWNYVSWFQQLPGTAPKLLISEVNKRASGIPDRFSGSKSGNTASLSISGLQSEDEADYYCTSYRSGNNWVFGGGTHLTVL
notes: also called IL-5 mAb; IL-5 monospecific Ab
For the molecule B3, in the test with mouse IL-5 [6], the “EC50, inhibition of mouse IL-5-induced proliferation of TF-1 cells” value was determined as 0.6 nM. Besides, in the test with mouse IL-5 [7], the “EC50 (nM), inhibition of mIL-5-induced (0.25 ng/mL) proliferation of TF-1 cells” value turned out to be 1.75 nM. For the same molecule, the binding result in test [8] is given as “no binding”. For the same molecule, in the test with mouse IL-5 [9], the Kd was determined as 2 pM.

The values above are taken from patent US20200399382A1 (ARGENX, published 2020).
